Data reported in publication PMC2621155.

Target: rapsyn, endogenous in C2C12 myotubes (mouse (endogenous in C2C12)) (UniProt P12672)
Assay: co-IP; C2C12 myotube lysates, anti-rapsyn antibody and protein A agarose beads, blot for α-actinin; myotubes untreated, with agrin 10 ng/ml 18 hr, with agrin and STI-571, or with agrin and then 10 μM carbachol for 4 hr

UniProt P12672, sequence (P12672 whole entry): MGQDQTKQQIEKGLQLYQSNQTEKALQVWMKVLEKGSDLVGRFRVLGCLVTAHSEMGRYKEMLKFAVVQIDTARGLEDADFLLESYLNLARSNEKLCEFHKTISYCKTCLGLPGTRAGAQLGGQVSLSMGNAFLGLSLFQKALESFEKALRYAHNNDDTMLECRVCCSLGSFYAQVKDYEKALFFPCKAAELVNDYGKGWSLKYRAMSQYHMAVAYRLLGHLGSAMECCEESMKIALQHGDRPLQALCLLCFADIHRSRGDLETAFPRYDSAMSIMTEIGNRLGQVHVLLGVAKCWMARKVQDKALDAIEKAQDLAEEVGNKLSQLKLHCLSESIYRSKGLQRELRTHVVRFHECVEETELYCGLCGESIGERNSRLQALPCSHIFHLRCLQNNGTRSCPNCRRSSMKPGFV

Q: How did the fold increase of the co-precipitation in agrin-treated against untreated myotubes turn out when “α-actinin, endogenous in myotubes (from UniProt Q9JI91 1-894) (natural protein)” was run?
A: Its fold increase of the co-precipitation in agrin-treated against untreated myotubes is 6 to 10 fold.
